The target of the assay is T1, ϕ29 DNA polymerase, wild type (bacteriophage ϕ29, UniProt P03680 1-575).
T1 construct: DNA polymerase of bacteriophage ϕ29, wild type; 66 kDa; also called viral DNA polymerase
T1 sequence (looked up): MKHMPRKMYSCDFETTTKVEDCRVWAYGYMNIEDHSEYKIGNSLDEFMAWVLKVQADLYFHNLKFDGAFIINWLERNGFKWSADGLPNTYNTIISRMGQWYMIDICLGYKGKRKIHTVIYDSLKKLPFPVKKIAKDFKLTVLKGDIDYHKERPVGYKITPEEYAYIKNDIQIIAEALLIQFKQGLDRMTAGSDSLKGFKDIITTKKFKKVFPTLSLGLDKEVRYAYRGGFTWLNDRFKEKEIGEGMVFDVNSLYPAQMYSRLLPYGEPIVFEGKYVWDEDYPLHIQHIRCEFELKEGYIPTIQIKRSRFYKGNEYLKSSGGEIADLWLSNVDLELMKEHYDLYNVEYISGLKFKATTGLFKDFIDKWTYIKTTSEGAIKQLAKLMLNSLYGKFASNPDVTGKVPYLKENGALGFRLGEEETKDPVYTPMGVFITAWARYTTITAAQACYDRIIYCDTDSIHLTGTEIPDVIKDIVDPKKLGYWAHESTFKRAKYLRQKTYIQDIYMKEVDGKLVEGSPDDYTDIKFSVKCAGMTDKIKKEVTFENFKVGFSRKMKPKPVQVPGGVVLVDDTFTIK
Kind of assay: co-sedimentation; glycerol gradient sedimentation of DNA polymerase with TP N-terminal mutants (Supplementary Figure S2). As to conditions: both partners purified.

B1: ϕ29 TP mutant K32A/K33A/K34A (natural protein, bacteriophage ϕ29, UniProt P03681 1-266, looked up)
chain: MARSPRIRIKDNDKAEYARLVKNTKAKIARTAAAYGVDLTAEIDIPDLDSFETRAQFNKWKEQASSFTNRANMRYQFEKNAYGVVASKAKIAEIERNTKEVQRLVDEKIKAMKDKEYYAGGKPQGTIEQRIAMTSPAHVTGINRPHDFDFSKVRSYSRLRTLEESMEMRTDPQYYEKKMIQLQLNFIKSVEGSFNSFDAADELIEELKKIPPDDFYELFLRISEISFEEFDSEGNTVENVEGNVYKILSYLEQYRRGDFDLSLKGF
notes: terminal protein (TP) of bacteriophage ϕ29 with K32A, K33A and K34A
Turning to B1, the binding result is listed as “binds”.

For the origin of these results see article PMC4357725 (Nucleic Acids Research, 2015).
